The values that follow are results of earlier work, collected in article PMC6944378.

As a reminder, the Kd is the concentration at which binding is half-saturated.

This series has as its target MASP-2 (Homo sapiens) (UniProt O00187). In words: SPR.

Chain of MASP-2 (Homo sapiens) (O00187 16-686): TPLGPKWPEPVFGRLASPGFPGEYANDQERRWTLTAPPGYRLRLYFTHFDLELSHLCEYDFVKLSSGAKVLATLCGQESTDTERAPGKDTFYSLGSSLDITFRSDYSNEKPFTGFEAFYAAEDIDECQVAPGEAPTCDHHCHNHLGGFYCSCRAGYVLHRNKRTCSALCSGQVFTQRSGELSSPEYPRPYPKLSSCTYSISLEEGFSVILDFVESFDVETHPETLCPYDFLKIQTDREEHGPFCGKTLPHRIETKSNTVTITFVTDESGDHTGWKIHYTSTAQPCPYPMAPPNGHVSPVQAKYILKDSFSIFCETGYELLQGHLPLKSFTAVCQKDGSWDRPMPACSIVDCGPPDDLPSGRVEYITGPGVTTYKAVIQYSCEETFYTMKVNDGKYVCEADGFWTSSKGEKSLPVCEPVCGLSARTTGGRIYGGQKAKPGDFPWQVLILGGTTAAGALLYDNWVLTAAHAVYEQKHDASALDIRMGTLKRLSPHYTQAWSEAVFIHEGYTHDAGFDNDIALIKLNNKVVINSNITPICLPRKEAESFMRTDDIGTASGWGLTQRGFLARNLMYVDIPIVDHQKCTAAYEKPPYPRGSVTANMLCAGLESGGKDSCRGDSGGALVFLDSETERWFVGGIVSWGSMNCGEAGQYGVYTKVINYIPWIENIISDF

ecotin (from UniProt P23827): the equilibrium dissociation constant (Kd) was 24.7 nM.
